According to patent publication US12624112 (MABWELL SHANGHAI BIOSCIENCE, dated 2026):

T1: ST2 on the effector cells (KU812, KU812/NF-κB-1#, HUVEC, HMC-1) (human, UniProt Q01638 19-556)
T1 sequence (looked up): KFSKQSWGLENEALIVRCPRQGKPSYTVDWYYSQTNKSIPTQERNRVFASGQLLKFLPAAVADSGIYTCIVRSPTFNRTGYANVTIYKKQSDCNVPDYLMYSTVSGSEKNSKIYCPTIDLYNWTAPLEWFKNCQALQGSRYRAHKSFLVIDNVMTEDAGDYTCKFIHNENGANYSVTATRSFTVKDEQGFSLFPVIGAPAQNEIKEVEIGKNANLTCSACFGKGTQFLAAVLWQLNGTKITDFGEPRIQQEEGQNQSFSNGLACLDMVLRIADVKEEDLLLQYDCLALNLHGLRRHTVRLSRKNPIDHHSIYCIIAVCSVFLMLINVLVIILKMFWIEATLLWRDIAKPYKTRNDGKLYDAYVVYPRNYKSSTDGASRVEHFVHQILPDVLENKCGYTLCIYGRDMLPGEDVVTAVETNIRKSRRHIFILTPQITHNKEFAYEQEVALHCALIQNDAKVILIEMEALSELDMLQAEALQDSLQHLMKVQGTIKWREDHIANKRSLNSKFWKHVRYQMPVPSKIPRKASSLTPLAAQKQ

T2: Human ST2-his (human, UniProt Q01638-2 19-328, limits assumed)
T2 construct: Expressed in CHO-K1; The printed range starts at Met1; also called human ST2 fused with a 6-histidine tag at the C-terminus
T2 sequence: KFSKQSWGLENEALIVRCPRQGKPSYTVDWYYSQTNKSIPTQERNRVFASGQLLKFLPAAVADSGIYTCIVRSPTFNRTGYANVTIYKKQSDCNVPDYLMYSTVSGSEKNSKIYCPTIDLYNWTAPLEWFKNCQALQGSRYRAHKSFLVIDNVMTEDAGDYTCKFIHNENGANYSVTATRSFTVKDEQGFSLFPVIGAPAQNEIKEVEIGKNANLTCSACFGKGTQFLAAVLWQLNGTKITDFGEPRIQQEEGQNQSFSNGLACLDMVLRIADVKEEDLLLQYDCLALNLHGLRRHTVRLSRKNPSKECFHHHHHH


Key:
[1] = molecular target: T1, ST2 on the effector cells (KU812, …); assay: cell-based or functional assay
[2] = molecular target: T1, ST2 on the effector cells (KU812, …); assay: cell-based or functional assay; remark: listed apart in the source
[3] = molecular target: T1, ST2 on the effector cells (KU812, …); assay: cell-based or functional assay; remark: listed apart in the source
[4] = molecular target: T1, ST2 on the effector cells (KU812, …); assay: cell-based or functional assay; remark: listed apart in the source
[5] = molecular target: T1, ST2 on the effector cells (KU812, …); assay: cell-based or functional assay; remark: listed apart in the source
[6] = molecular target: T1, ST2 on the effector cells (KU812, …); assay: cell-based or functional assay; remark: listed apart in the source
Human ST2-fc (human) = Human ST2-fc (human) (UniProt Q01638); assay: competition ELISA, coated ST2-fc, competitor IL33-his
Human ST2-his [7] = molecular target: T2, Human ST2-his; assay: SPR Biacore X100, ratio of kd at pH 5.5 to kd at pH 7.4
Experimental: (§1) The experiment on the interaction between the anti-human ST2 antibodies and human ST2-his was performed using Biacore X100.
(§2) Each anti-human ST2 antibody was diluted to 2 µg/mL and captured on the surface of a protein A chip for a capture time of 60 s. Following the antibody capture, a solution of human ST2-his (2-fold gradient dilution from a starting concentration of 20 nM, to obtain 6 concentrations in total) was injected. Association was monitored for 180 s and dissociation was monitored for 700 s, and the sensor surface was regenerated by injecting a solution of glycine at pH 2.0. Kinetic data were analyzed using a simple 1:1 binding model.

Human ST2-his [8] = molecular target: T2, Human ST2-his; assay: SPR Biacore X100, antibody captured on protein A chip, human ST2-his injected, pH 7.4
Experimental: as §1, §2

Human ST2-his [9] = molecular target: T2, Human ST2-his; assay: SPR Biacore X100, antibody captured on protein A chip, human ST2-his injected, dissociation at pH 5.5
Experimental: as §1, §2

Binder | IC50, inhibition of KU812-IL5 production promoted by IL-33 (human IL33-his) [1] [µg/mL] | Maximum inhibition rate, KU812-IL5 production by IL-33 [1] [%] | Relative activity compared with CNTO7160, KU812-IL5 production by IL-33 [1] [%] | IC50, inhibition of activation of KU812-NF-κB reporter gene by IL33 [2] [µg/mL] | Maximum inhibition rate, KU812-NF-κB reporter gene [2] [%] | Relative activity compared with CNTO7160, KU812-NF-κB reporter gene [2] [%] | IC50, inhibition of KU812-IL5 production promoted by oxidized IL33 [3] [µg/mL] | Maximum inhibition rate, KU812-IL5 production by oxidized IL33 [3] [%] | Relative activity, KU812-IL5 production by oxidized IL33 [3] [%] | IC50, inhibition of KU812-IL5 production promoted by reduced IL33 [4] [µg/mL] | Maximum inhibition rate, KU812-IL5 production by reduced IL33 [4] [%] | Relative activity, KU812-IL5 production by reduced IL33 [4] [%] | IC50, inhibition of HUVEC-IL6 production promoted by IL33 [5] [µg/mL] | Maximum inhibition rate, HUVEC-IL6 production by IL33 [5] [%] | Relative activity, HUVEC-IL6 production by IL33 [5] [%] | IC50, inhibition of HMC-1 IL8 production promoted by IL33 [6] [µg/mL] | Maximum inhibition rate, HMC-1 IL8 production by IL33 [6] [%] | Relative activity, HMC-1 IL8 production by IL33 [6] [%] | IC50 (Human ST2-fc (human)) [µg/mL] | Maximum inhibition rate (Human ST2-fc (human)) [%] | also measured
5886-156-H1L0 (antibody, human IgG4 S228P, kappa, V domains shown, Humanized antibody expressed in CHO-K1, purified by protein A) VH: QVQLQESGPGLVKPSQTLSLTCTVSGYSITSDYAWNWIRQPPGKGLEWIGYIDYSGSTTYNPSLKSRVTISRDTSKNQFSLKLSSVTAADTAVYYCASTVIDSMDYWGQGTLVTVSS VL: DIVLTQSPASLAVSPGQRATITCRASKSVSTSGHSYMHWYQQKPGQPPKLLIYLASNLESGVPARFSGSGSGTDFTLTINPVEANDTANYYCQHSREFPFTFGQGTKVEIKR | 0.0354 | 98.1 | 181 | 0.478 | 92.5 | 41.9 | 0.0285 | 101 | 77.5 | 0.752 | 93.4 | 195 | 4.05 | 87.9 | 67.3 | 0.177 | 81 | 56.9 | 1.22 | 89.2 | Relative activity compared with CNTO7160 (Human ST2-fc (human)): 103%; kd ratio of pH 5.5/pH 7.4 (Human ST2-his [7]): 1.03; Kd (Human ST2-his [8]): 0.275 nM; koff (Human ST2-his [8]): 0.000272 s⁻¹; kon (Human ST2-his [8]): 990000 M⁻¹ s⁻¹; Kd (Human ST2-his [9]): 0.276 nM; koff (Human ST2-his [9]): 0.000279 s⁻¹; kon (Human ST2-his [9]): 1.01e+06 M⁻¹ s⁻¹
5887-41-H1L0 (antibody, human IgG4 S228P, kappa, V domains shown, Humanized antibody) VH: QVQLQESGPGLVKPSQTLSLTCTVSGYSITSDYAWDWIRQPPGKGLEWIGYIRYSGDTYYNPSLKSRVTISRDTSKNQFSLKLSSVTAADTAVYYCATTMMDTMDYWGQGTLVTVSS VL: DIVLTQSPASLAVSPGQRATITCRASKSVSTSGNSYMHWYQQKPGQPPKLLIYLASNLESGVPARFSGSGSGTDFTLTINPVEANDTANYYCQHSREFPLTFGQGTKLEIKR | 0.0699 | 97.3 | 91.7 | 0.0554 | 89.2 | 362 | 0.0337 | 101 | 65.4 | 0.706 | 78.6 | 208 | 1.31 | 93.2 | 208 | 0.123 | 77.8 | 81.6 | 0.58 | 92.8 | Relative activity compared with CNTO7160 (Human ST2-fc (human)): 216%; kd ratio of pH 5.5/pH 7.4 (Human ST2-his [7]): 1; Kd (Human ST2-his [8]): 0.214 nM; koff (Human ST2-his [8]): 9.98e-05 s⁻¹; kon (Human ST2-his [8]): 467000 M⁻¹ s⁻¹; Kd (Human ST2-his [9]): 0.161 nM; koff (Human ST2-his [9]): 0.0001 s⁻¹; kon (Human ST2-his [9]): 622000 M⁻¹ s⁻¹
